{"source": "paper PMC7698151", "about": "“Evidence for Pentapeptide-Dependent and Independent CheB Methylesterases” (International Journal of Molecular Sciences, 2020)", "key": {"[1]": {"target": "Tar pentapeptide (Escherichia coli)", "details": "cited from earlier work"}, "[2]": {"target": "McpB (Aer2) pentapeptide (Pseudomonas aeruginosa)", "details": "cited from earlier work"}, "[3]": {"target": "Tar methylation site (Escherichia coli) (UniProt P07017)", "details": "cited from earlier work"}, "[4]": {"target": "Tar pentapeptide (Escherichia coli)", "details": "cited from earlier work", "remark": "listed apart in the source"}, "[5]": {"target": "P. aeruginosa PAO1 CheB2 D55E mutant (Pseudomonas aeruginosa PAO1) (UniProt Q9I6V9)", "assay": "ITC"}}, "note": "Like-named read-outs stand apart in the source and are kept apart here.", "data": [{"substance": "CheB (from UniProt P07330)", "values": [{"measurement": "Kd", "setting": "[1]", "value": 145, "unit": "µM"}]}, {"substance": "CheR2 (from UniProt Q9I6V7)", "values": [{"measurement": "Kd", "setting": "[2]", "value": 0.52, "unit": "µM"}]}, {"substance": "CheR (from UniProt P07364)", "values": [{"measurement": "Kd", "setting": "[3]", "value": 150, "unit": "µM"}, {"measurement": "Kd", "setting": "[4]", "value": 2, "unit": "µM"}]}, {"substance": "[…] pentapeptide of the McpB (Aer2) chemoreceptor", "values": [{"measurement": "Kd", "setting": "[5]", "value": 56, "unit": "µM"}]}]}
